# Data taken from paper PMC2953525, “Subtle Alterations in PCNA-Partner Interactions Severely Impair DNA Replication and Repair” (PLoS Biology, 2010).
# Positions count from the first letter of the chain named.
# T1: pol30-Rad30E2 (yeast, UniProt P15873 1-258, IDCL DIDADFLKIEEL to DDDWDFLKILEL)
# T1 construct: PCNA (POL30), yeast; source: yeast two-hybrid fusion (pAD-GAL4, strain YRG2)
# T1 sequence: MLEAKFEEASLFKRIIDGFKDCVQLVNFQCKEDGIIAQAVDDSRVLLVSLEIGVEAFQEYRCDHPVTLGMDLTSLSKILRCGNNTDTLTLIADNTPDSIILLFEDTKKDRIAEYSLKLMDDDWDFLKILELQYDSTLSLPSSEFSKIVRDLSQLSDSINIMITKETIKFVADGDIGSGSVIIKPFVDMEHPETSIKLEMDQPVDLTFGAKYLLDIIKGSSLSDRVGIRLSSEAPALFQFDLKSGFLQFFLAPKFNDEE
# T2: pol30-Rad30E9 (yeast, UniProt P15873 1-258, IDCL DIDADFLKIEEL to DNDWDFLKIDEL)
# T2 construct: PCNA (POL30), yeast; also called Pol30-Rad30E9p; source: yeast two-hybrid fusion (pAD-GAL4, strain YRG2)
# T2 sequence: T1 sequence with D121N, L129D
# T3: pol30-Rad27L2 (yeast, UniProt P15873 1-258, IDCL DIDADFLKIEEL to D––VDTLKITEL)
# T3 construct: PCNA (POL30), yeast; two residues after the first aspartic acid of the IDCL are deleted; source: yeast two-hybrid fusion (pAD-GAL4, strain YRG2)
# T3 sequence: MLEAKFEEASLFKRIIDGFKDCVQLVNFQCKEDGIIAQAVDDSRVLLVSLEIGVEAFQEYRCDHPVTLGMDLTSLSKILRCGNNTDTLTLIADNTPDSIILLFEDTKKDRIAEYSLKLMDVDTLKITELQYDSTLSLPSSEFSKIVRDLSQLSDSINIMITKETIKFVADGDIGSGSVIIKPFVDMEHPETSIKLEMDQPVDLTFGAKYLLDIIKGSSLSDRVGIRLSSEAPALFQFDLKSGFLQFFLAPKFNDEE
# T4: pol30-Rad27L1 (yeast, UniProt P15873 1-258, IDCL DIDADFLKIEEL to D––VDILKIGEL)
# T4 construct: PCNA (POL30), yeast; two residues after the first aspartic acid of the IDCL are deleted; source: yeast two-hybrid fusion (pAD-GAL4, strain YRG2)
# T4 sequence: T3 sequence with T123I, T127G
# T5: pol30-79 (yeast, UniProt P15873 1-258, IDCL DIDADFLKIEEL to DIDADFAKAEEL)
# T5 construct: PCNA (POL30), yeast; the changes are then L126A and I128A; also called PCNA79; source: yeast two-hybrid fusion (pAD-GAL4, strain YRG2)
# T5 sequence: T1 sequence with D121I, W123A, L126A, I128A, L129E
# T6: pol30-Pol32E9 (yeast, UniProt P15873 1-258, IDCL DIDADFLKIEEL to DNDVDSLKIIEL)
# T6 construct: PCNA (POL30), yeast; source: yeast two-hybrid fusion (pAD-GAL4, strain YRG2)
# T6 sequence: T1 sequence with D121N, W123V, F125S, L129I
# T7: pol30-Pol32E5 (yeast, UniProt P15873 1-258, IDCL DIDADFLKIEEL to DADNDFLKISEL)
# T7 construct: PCNA (POL30), yeast; source: yeast two-hybrid fusion (pAD-GAL4, strain YRG2)
# T7 sequence: T1 sequence with D121A, W123N, L129S
# T8: pol30-Rad27E6 of the mutant strain (yeast, UniProt P15873 1-258, IDCL DIDADFLKIEEL to DGDYDILKIREL)
# T8 construct: PCNA (POL30), yeast; source: yeast, sole source of PCNA under the native POL30 promoter, in crude cell extract
# T8 sequence: T1 sequence with D121G, W123Y, F125I, L129R
# B1: Rad30 (natural protein, yeast, UniProt Q04049 1-632, looked up)
# chain: MSKFTWKELIQLGSPSKAYESSLACIAHIDMNAFFAQVEQMRCGLSKEDPVVCVQWNSIIAVSYAARKYGISRMDTIQEALKKCSNLIPIHTAVFKKGEDFWQYHDGCGSWVQDPAKQISVEDHKVSLEPYRRESRKALKIFKSACDLVERASIDEVFLDLGRICFNMLMFDNEYELTGDLKLKDALSNIREAFIGGNYDINSHLPLIPEKIKSLKFEGDVFNPEGRDLITDWDDVILALGSQVCKGIRDSIKDILGYTTSCGLSSTKNVCKLASNYKKPDAQTIVKNDCLLDFLDCGKFEITSFWTLGGVLGKELIDVLDLPHENSIKHIRETWPDNAGQLKEFLDAKVKQSDYDRSTSNIDPLKTADLAEKLFKLSRGRYGLPLSSRPVVKSMMSNKNLRGKSCNSIVDCISWLEVFCAELTSRIQDLEQEYNKIVIPRTVSISLKTKSYEVYRKSGPVAYKGINFQSHELLKVGIKFVTDLDIKGKNKSYYPLTKLSMTITNFDIIDLQKTVVDMFGNQVHTFKSSAGKEDEEKTTSSKADEKTPKLECCKYQVTFTDQKALQEHADYHLALKLSEGLNGAEESSKNLSFGEKRLLFSRKRPNSQHTATPQKKQVTSSKNILSFFTRKK
# notes: Rad30 (DNA polymerase), yeast; also called pBD-Rad30; source: yeast two-hybrid fusion (pBD-GAL4, strain YRG2)
# B2: Pol32 (natural protein, yeast, UniProt P47110 1-350, looked up)
# chain: MDQKASYFINEKLFTEVKPVLFTDLIHHLKIGPSMAKKLMFDYYKQTTNAKYNCVVICCYKDQTIKIIHDLSNIPQQDSIIDCFIYAFNPMDSFIPYYDIIDQKDCLTIKNSYELKVSESSKIIERTKTLEEKSKPLVRPTARSKTTPEETTGRKSKSKDMGLRSTALLAKMKKDRDDKETSRQNELRKRKEENLQKINKQNPEREAQMKELNNLFVEDDLDTEEVNGGSKPNSPKETDSNDKDKNNDDLEDLLETTAEDSLMDVPKIQQTKPSETEHSKEPKSEEEPSSFIDEDGYIVTKRPATSTPPRKPSPVVKRALSSSKKQETPSSNKRLKKQGTLESFFKRKAK
# notes: Pol32 (DNA polymerase subunit), yeast; also called pBD-Pol32; source: yeast two-hybrid fusion (pBD-GAL4, strain YRG2)
# B3: GFP-tagged Rad27 (natural protein, yeast, UniProt P26793 1-382, looked up)
# chain: MGIKGLNAIISEHVPSAIRKSDIKSFFGRKVAIDASMSLYQFLIAVRQQDGGQLTNEAGETTSHLMGMFYRTLRMIDNGIKPCYVFDGKPPDLKSHELTKRSSRRVETEKKLAEATTELEKMKQERRLVKVSKEHNEEAQKLLGLMGIPYIIAPTEAEAQCAELAKKGKVYAAASEDMDTLCYRTPFLLRHLTFSEAKKEPIHEIDTELVLRGLDLTIEQFVDLCIMLGCDYCESIRGVGPVTALKLIKTHGSIEKIVEFIESGESNNTKWKIPEDWPYKQARMLFLDPEVIDGNEINLKWSPPKEKELIEYLCDDKKFSEERVKSGISRLKKGLKSGIQGRLDGFFQVVPKTKEQLAAAAKRAQENKKLNKNKNKVTKGRR
# notes: Rad27, yeast, tagged at its natural locus; source: yeast, GFP-tagged at the natural locus, in crude cell extract; not shown: GFP, C-terminal, kept
# B4: proliferating cell nuclear antigen (PCNA), 6×Histidine-tagged (natural protein, yeast)
# chain: T1 sequence with D121I, W123A, L129E
# notes: PCNA (POL30), yeast; cloned into pET28 by NdeI and XhoI; also called WT PCNA; Pol30p; source: E. coli BL21, purified (Ni-NTA)
# Columns and labels:
# pol30-Rad30E2 = biological target: T1, pol30-Rad30E2; assay: two-hybrid; quantitative Y2H: generation time of the YRG2 strains in liquid SC-Leu-Trp-His, given relative to cells expressing WT PCNA; average of at least 3 experiments; settings: partners not purified
# pol30-Rad30E9 = biological target: T2, pol30-Rad30E9; assay: as above; settings: partners not purified
# pol30-Rad27L2 = biological target: T3, pol30-Rad27L2; assay: two-hybrid; pAD-GAL4-PCNA WT or mutant (called bait) and pBD-GAL4-partner (called prey) in strain YRG2; 10-fold serial dilutions spotted on SC-Leu-Trp-His plates, 30°C, 3 d; growth similar to WT PCNA is denoted 1; settings: partners not purified
# pol30-Rad27L1 = biological target: T4, pol30-Rad27L1; assay: as above; settings: partners not purified
# pol30-79 = biological target: T5, pol30-79; assay: two-hybrid; quantitative Y2H: generation time of the YRG2 strains in liquid SC-Leu-Trp-His, given relative to cells expressing WT PCNA; average of at least 3 experiments; settings: partners not purified
# pol30-Pol32E9 = biological target: T6, pol30-Pol32E9; assay: as above; settings: partners not purified
# pol30-Pol32E5 = biological target: T7, pol30-Pol32E5; assay: as above; settings: partners not purified
# [1] = biological target: T8, pol30-Rad27E6 of the mutant strain; assay: ELISA; PCNA captured from crude yeast extract (3 mg/ml) on plates coated with anti-PCNA antibody; bound GFP-tagged partner detected by anti-GFP, normalised to the anti-His signal of PCNA; settings: partners not purified
# [2] = biological target: the molecule itself; assay: SEC; Superdex 200 10/300 GL, activity buffer (300 mM NaCl, 50 mM Tris-HCl, pH 8), monomer concentrations of 3–8 µM
binder,measurement,setting,value
B1,fold change in affinity relative to WT PCNA (Y2H generation time),pol30-Rad30E2,1.4 fold
same,fold change in affinity relative to WT PCNA (Y2H generation time),pol30-Rad30E9,1.6 fold
same,fold change in affinity relative to WT PCNA (Y2H),pol30-Rad27L2,0.5 fold
same,fold change in affinity relative to WT PCNA (Y2H),pol30-Rad27L1,0.4 fold
B2,fold change in affinity relative to WT PCNA (Y2H generation time),pol30-Rad30E2,0.4 fold
same,fold change in affinity relative to WT PCNA (Y2H generation time),pol30-79,0.3 fold
same,fold change in affinity relative to WT PCNA (Y2H generation time),pol30-Pol32E9,1.3 fold
same,fold change in affinity relative to WT PCNA (Y2H generation time),pol30-Pol32E5,1.5 fold
B3,increase in the amount of complex relative to the POL30 strain,[1],17%
B4,stoichiometry N,[2],3
